Reference: patent US8586570

B1: PKCµ (enzyme, UniProt Q15139 1-912, looked up, species assumed)
Serine/threonine-protein kinase D1: MSAPPVLRPPSPLLPVAAAAAAAAAALVPGSGPGPAPFLAPVAAPVGGISFHLQIGLSREPVLLLQDSSGDYSLAHVREMACSIVDQKFPECGFYGMYDKILLFRHDPTSENILQLVKAASDIQEGDLIEVVLSASATFEDFQIRPHALFVHSYRAPAFCDHCGEMLWGLVRQGLKCEGCGLNYHKRCAFKIPNNCSGVRRRRLSNVSLTGVSTIRTSSAELSTSAPDEPLLQKSPSESFIGREKRSNSQSYIGRPIHLDKILMSKVKVPHTFVIHSYTRPTVCQYCKKLLKGLFRQGLQCKDCRFNCHKRCAPKVPNNCLGEVTINGDLLSPGAESDVVMEEGSDDNDSERNSGLMDDMEEAMVQDAEMAMAECQNDSGEMQDPDPDHEDANRTISPSTSNNIPLMRVVQSVKHTKRKSSTVMKEGWMVHYTSKDTLRKRHYWRLDSKCITLFQNDTGSRYYKEIPLSEILSLEPVKTSALIPNGANPHCFEITTANVVYYVGENVVNPSSPSPNNSVLTSGVGADVARMWEIAIQHALMPVIPKGSSVGTGTNLHRDISVSISVSNCQIQENVDISTVYQIFPDEVLGSGQFGIVYGGKHRKTGRDVAIKIIDKLRFPTKQESQLRNEVAILQNLHHPGVVNLECMFETPERVFVVMEKLHGDMLEMILSSEKGRLPEHITKFLITQILVALRHLHFKNIVHCDLKPENVLLASADPFPQVKLCDFGFARIIGEKSFRRSVVGTPAYLAPEVLRNKGYNRSLDMWSVGVIIYVSLSGTFPFNEDEDIHDQIQNAAFMYPPNPWKEISHEAIDLINNLLQVKMRKRYSVDKTLSHPWLQDYQTWLDLRELECKIGERYITHESDDLRWEKYAGEQGLQYPTHLINPSASHSDTPETEETEMKALGERVSIL
B2: PKCν (enzyme, UniProt O94806 1-890, looked up, species assumed)
Serine/threonine-protein kinase D3: MSANNSPPSAQKSVLPTAIPAVLPAASPCSSPKTGLSARLSNGSFSAPSLTNSRGSVHTVSFLLQIGLTRESVTIEAQELSLSAVKDLVCSIVYQKFPECGFFGMYDKILLFRHDMNSENILQLITSADEIHEGDLVEVVLSALATVEDFQIRPHTLYVHSYKAPTFCDYCGEMLWGLVRQGLKCEGCGLNYHKRCAFKIPNNCSGVRKRRLSNVSLPGPGLSVPRPLQPEYVALPSEESHVHQEPSKRIPSWSGRPIWMEKMVMCRVKVPHTFAVHSYTRPTICQYCKRLLKGLFRQGMQCKDCKFNCHKRCASKVPRDCLGEVTFNGEPSSLGTDTDIPMDIDNNDINSDSSRGLDDTEEPSPPEDKMFFLDPSDLDVERDEEAVKTISPSTSNNIPLMRVVQSIKHTKRKSSTMVKEGWMVHYTSRDNLRKRHYWRLDSKCLTLFQNESGSKYYKEIPLSEILRISSPRDFTNISQGSNPHCFEIITDTMVYFVGENNGDSSHNPVLAATGVGLDVAQSWEKAIRQALMPVTPQASVCTSPGQGKDHKDLSTSISVSNCQIQENVDISTVYQIFADEVLGSGQFGIVYGGKHRKTGRDVAIKVIDKMRFPTKQESQLRNEVAILQNLHHPGIVNLECMFETPERVFVVMEKLHGDMLEMILSSEKSRLPERITKFMVTQILVALRNLHFKNIVHCDLKPENVLLASAEPFPQVKLCDFGFARIIGEKSFRRSVVGTPAYLAPEVLRSKGYNRSLDMWSVGVIIYVSLSGTFPFNEDEDINDQIQNAAFMYPPNPWREISGEAIDLINNLLQVKMRKRYSVDKSLSHPWLQDYQTWLDLREFETRIGERYITHESDDARWEIHAYTHNLVYPKHFIMAPNPDDMEEDP
B3: PKCζ (enzyme, UniProt Q05513 1-592, looked up, species assumed)
Protein kinase C zeta type: MPSRTGPKMEGSGGRVRLKAHYGGDIFITSVDAATTFEELCEEVRDMCRLHQQHPLTLKWVDSEGDPCTVSSQMELEEAFRLARQCRDEGLIIHVFPSTPEQPGLPCPGEDKSIYRRGARRWRKLYRANGHLFQAKRFNRRAYCGQCSERIWGLARQGYRCINCKLLVHKRCHGLVPLTCRKHMDSVMPSQEPPVDDKNEDADLPSEETDGIAYISSSRKHDSIKDDSEDLKPVIDGMDGIKISQGLGLQDFDLIRVIGRGSYAKVLLVRLKKNDQIYAMKVVKKELVHDDEDIDWVQTEKHVFEQASSNPFLVGLHSCFQTTSRLFLVIEYVNGGDLMFHMQRQRKLPEEHARFYAAEICIALNFLHERGIIYRDLKLDNVLLDADGHIKLTDYGMCKEGLGPGDTTSTFCGTPNYIAPEILRGEEYGFSVDWWALGVLMFEMMAGRSPFDIITDNPDMNTEDYLFQVILEKPIRIPRFLSVKASHVLKGFLNKDPKERLGCRPQTGFSDIKSHAFFRSIDWDLLEKKQALPPFQPQITDDYGLDNFDTQFTSEPVQLTPDDEDAIKRIDQSEFEGFEYINPLLLSTEESV
B4: PKCι (enzyme, UniProt P41743 2-596, looked up, species assumed)
Protein kinase C iota type: PTQRDSSTMSHTVAGGGSGDHSHQVRVKAYYRGDIMITHFEPSISFEGLCNEVRDMCSFDNEQLFTMKWIDEEGDPCTVSSQLELEEAFRLYELNKDSELLIHVFPCVPERPGMPCPGEDKSIYRRGARRWRKLYCANGHTFQAKRFNRRAHCAICTDRIWGLGRQGYKCINCKLLVHKKCHKLVTIECGRHSLPQEPVMPMDQSSMHSDHAQTVIPYNPSSHESLDQVGEEKEAMNTRESGKASSSLGLQDFDLLRVIGRGSYAKVLLVRLKKTDRIYAMKVVKKELVNDDEDIDWVQTEKHVFEQASNHPFLVGLHSCFQTESRLFFVIEYVNGGDLMFHMQRQRKLPEEHARFYSAEISLALNYLHERGIIYRDLKLDNVLLDSEGHIKLTDYGMCKEGLRPGDTTSTFCGTPNYIAPEILRGEDYGFSVDWWALGVLMFEMMAGRSPFDIVGSSDNPDQNTEDYLFQVILEKQIRIPRSLSVKAASVLKSFLNKDPKERLGCHPQTGFADIQGHPFFRNVDWDMMEQKQVVPPFKPNISGEFGLDNFDSQFTNEPVQLTPDDDDIVRKIDQSEFEGFEYINPLLMSAEECV

Test system: PKCα-S10

Row | Protein | phosphorylation activity (1 µM peptide, 2 ng kinase)
1 | B1 | no activity is observed with PKCδ, PKCµ, and PKCν
2 | B2 | no activity is observed with PKCδ, PKCµ, and PKCν
3 | B3 | very little activity is detected with PKCε, PKCζ, PKCη and PKCι
4 | B4 | very little activity is detected with PKCε, PKCζ, PKCη and PKCι
